Laboratory results from patent US20100143942A1, “METHOD OF DETECTION” (LEIDEN UNIVERSITY, priority 2006, published 2010).
Where two headings read alike, the source gives them in different places.

Legend:
[1] = target: T1, Ty (Streptomyces antibioticus, UniProt P07524); assay: Dye emission switching ratio (Fred/Foxy) of N-terminally labelled Ty; conditions: dye attached to Ty; excitation at 280 nm; Trp line = native protein
T1 construct: The S.a; Ty is a monomeric protein with a molecular mass of ˜30 kDa
T1 sequence (P07524 whole entry): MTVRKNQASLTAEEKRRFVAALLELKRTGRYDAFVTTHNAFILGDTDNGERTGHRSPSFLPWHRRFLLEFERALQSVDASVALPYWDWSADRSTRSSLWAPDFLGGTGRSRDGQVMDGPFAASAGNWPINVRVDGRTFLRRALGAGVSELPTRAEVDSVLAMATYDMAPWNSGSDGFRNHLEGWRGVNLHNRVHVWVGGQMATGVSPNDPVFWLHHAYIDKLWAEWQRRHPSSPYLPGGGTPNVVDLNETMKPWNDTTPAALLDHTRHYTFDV
Excerpt: (§1) To illustrate the present invention two type-3 copper proteins have been selected: Hc from the arthropod Carcinus aestuarii (Mediterranean crab) and Ty from the soil bacterium Streptomyces antibioticus. The C.a. Hc consists of a mixture of hexamers and dodecamers, which are self-assembled from three different types of subunits. The S.a. Ty is a monomeric protein with a molecular mass of ˜30 kDa. The structure of Ty from S. castaneoglobisporus has recently been solved. S.a. Ty has 91% sequence similarity (82% indentity) with S.c. Ty and can be easily modelled on the S.c. structure. […] Dissociation can be achieved by incubating the Hc at high pH and in the absence of divalent metal ions. Both conditions were met in our experiments and we will assume, therefore, that the Hc used in this study was present in the form of monomers. The data on O2 binding (vide infra) confirms this assumption.
Both Hc and Ty were labelled at their N-terminus with each of the five dyes. […] The peak around 330 nm is a second-order artefact. In a solution containing dye and protein separately (not linked) this peak (280 nm) was missing. […]
In all cases, an increase in label emission was observed after deoxygenating the sample (FIG. 4A). […] The Cy3 fluorescence is specific for the labelled protein, while the Trp emission derives mainly (>95%) from unlabelled Hc. […]

[2] = literature [14]; read-out: literature dissociation constant (O2); cited from earlier work
[3] = literature [15]; read-out: literature Kd (iodide); cited from earlier work
[4] = literature [12], [13]; cited from earlier work
[5] = Titration of a mixture of Hc-Alexa350 and Ty-Cy5 with iodide in air-saturated solution, emission upon excitation at 280 nm; type: binding; conditions: fitted to Eq. 1, read-out: apparent Kd (iodide)
Description: The specificity of the method is illustrated by the data presented in FIG. 7, which show a titration of a mixture of Hc-Alexa350 and Ty-Cy5 with iodide in an air-saturated solution. […] Hc. […] The small fluorescence decrease of the latter can be ascribed to the aspecific collisional quenching of the label and/or the Trp fluorescence by iodide. […] The difference between the experimental Kd and the literature value of 3.0±0.3 mM [15] may be related to its dependence on the [O2] in the sample, which may have varied between the two experiments.

[6] = O2 binding curve of labelled Ty; [O2] calculated from Hc-Atto390 fluorescence in the same sample during deoxygenation; parameters: species or system Streptomyces antibioticus; conditions: label fluorescence vs [O2] determined from Hc-Atto390; read-out: Kd (O2 binding curve fitted to Hill equation)
Excerpt: as §1, with “Both conditions were met in our experiments and we will assume, therefore, that the Hc used in this study was present in the form of monomers. The data on O2 binding (vide infra) confirms this assumption.” left out
The fact that the described method works for labels showing widely different emission wavelengths opens the possibility to observe two or more constructs in the same sample using a single excitation wavelength. […] The circles refer to the oxygen concentration (right scale) as calculated from the fluorescence of the Hc-Atto390. The left scale refers to the Ty-Atto655 fluorescence. […]
The [O2] at each time-point in the trace was determined using the response of Hc-Atto390 fluorescence with Eq. 1 and the oxygen dissociation constant and the Hill coefficient determined in an independent O2 titration (FIG. 6A). The Ty-Atto655 fluorescence was then plotted as a function of the determined [O2] at each time-point (FIG. 6B). […]

Molecule: Cc1cc(=O)oc2cc3c(cc12)C(C)CC(C)(C)N3CCCC(=O)O (stereo not shown) [Atto390]
- SR Tyr (switching ratio Fred/Foxy) [1]: 2.2

Molecule: CCN1C(=CC=CC2=[N+](CCCCCC(=O)O)c3ccc(S(=O)(=O)O)cc3C2(C)C)C(C)(C)c2cc(S(=O)(=O)[O-])ccc21 [Cy3]
- SR Tyr (switching ratio Fred/Foxy) [1]: 2.8

B1: Ty: Ty from the soil bacterium Streptomyces antibioticus, monomeric type-3 copper protein of ~30 kDa (protein, UniProt P07524 2-273, looked up)
Tyrosinase: TVRKNQASLTAEEKRRFVAALLELKRTGRYDAFVTTHNAFILGDTDNGERTGHRSPSFLPWHRRFLLEFERALQSVDASVALPYWDWSADRSTRSSLWAPDFLGGTGRSRDGQVMDGPFAASAGNWPINVRVDGRTFLRRALGAGVSELPTRAEVDSVLAMATYDMAPWNSGSDGFRNHLEGWRGVNLHNRVHVWVGGQMATGVSPNDPVFWLHHAYIDKLWAEWQRRHPSSPYLPGGGTPNVVDLNETMKPWNDTTPAALLDHTRHYTFDV
- Kd [2]: 16 µM
- Kd [3]: 3000 ± 300 µM
- O2 dissociation rate [4]: ~300 s⁻¹

B2: Ty-Cy5: Streptomyces antibioticus tyrosinase labelled at its N-terminus with the dye Cy5 (conjugate, UniProt P07524 2-273, looked up)
Tyrosinase: TVRKNQASLTAEEKRRFVAALLELKRTGRYDAFVTTHNAFILGDTDNGERTGHRSPSFLPWHRRFLLEFERALQSVDASVALPYWDWSADRSTRSSLWAPDFLGGTGRSRDGQVMDGPFAASAGNWPINVRVDGRTFLRRALGAGVSELPTRAEVDSVLAMATYDMAPWNSGSDGFRNHLEGWRGVNLHNRVHVWVGGQMATGVSPNDPVFWLHHAYIDKLWAEWQRRHPSSPYLPGGGTPNVVDLNETMKPWNDTTPAALLDHTRHYTFDV
modifications: N-terminal Cy5 label
- Kd [5]: 4400 ± 300 µM
- Kd [6]: 15 µM
